This note sets out measurements from PMC11186766.

The target in test [1] is full-length rat GluK2 kainate receptor (rat) (UniProt P42260). Briefly: cryo-EM structure; time-resolved cryo-EM: purified GluK2 at 60 uM incubated with 500 uM BPAM344 for 20-30 min on ice, 90 uM succinylated concanavalin A added, 10 mM L-glutamate applied less than 3 s before plunge-freezing; 150 mM NaCl, 20 mM Tris-HCl pH 8.0, 0.05% digitonin.
Test [2] deals with succinylated concanavalin A. The test is described as above.

The stoichiometry N is the number of molecules, sites or subunits per partner or assembly. Take “full-length rat GluK2 kainate receptor (from UniProt P42260 32-908)”: the stoichiometry N in test [1] came to 4.
Take “succinylated concanavalin A (natural protein)”: the stoichiometry N in test [2] was 2.
